Values of other authors as cited in article PMC6691393.

Target: Survivin BIR (Homo sapiens) (UniProt O15392)
Chain of UniProt O15392 (O15392 15-91): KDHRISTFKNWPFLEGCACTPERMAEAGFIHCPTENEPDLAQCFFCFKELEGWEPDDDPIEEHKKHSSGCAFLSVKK

In the case of “SMAC/Diablo N-terminal peptide (from UniProt Q9NR28)”, the Kd is listed as 121 µM.
